The source of these data is patent US20150183835A1.

Broadly, the Kd is a measure of binding affinity in units of concentration. A low value points to higher affinity. As usually defined, the koff is the first-order rate constant of dissociation. A lower koff goes with slow dissociation. One may read the kon as a measure of how fast the partners come together. Read a low kon as slow association.

In experiment [1] the target is disulfide-stabilized SF162 L1-SS-L2 gp120 (V59C & S109C) (HIV-1 strain SF162) (UniProt P19550). Nature of the experiment: SPR BIAcore 3000, b12 amine-coupled on CM5, gp120 L1-SS-L2 as analyte, 25 C, 1:1 Langmuir fit. On the technique in general: SPR reads the build-up and loss of mass on a sensor chip optically.
For experiment [2], the target named is HIV-1 SF162 gp120 (wild type, unmodified) (HIV-1 strain SF162) (UniProt P19550). The experiment is described as follows: SPR BIAcore 3000, b12 amine-coupled on CM5, gp120 as analyte, 25 C, 1:1 Langmuir fit.
Experiment [3] has as its target disulfide-stabilized SF162 L1-SS-L2 gp120 (V59C & S109C) (HIV-1 strain SF162) (UniProt P19550). The experiment is described as follows: SPR BIAcore 3000, b12 immobilized; Kd compared with wild-type gp120.

As to mAb b12 (antibody), in experiment [1], the dissociation constant (Kd) turned out to be 304 nM, the koff was 0.00885 s⁻¹ and the kon turned out to be 29100 M⁻¹ s⁻¹. In experiment [2], the dissociation constant Kd is 44.8 nM, the off-rate (koff) is 0.00712 s⁻¹ and the kon turned out to be 165000 M⁻¹ s⁻¹. Besides, the fold difference in Kd against wild-type gp120 in experiment [3] is below 7 fold.
